The chains are these.
B1: M43I/C82R: variant CD80 IgV-Fc, IgV SEQ ID NO:157 (protein)
chain: VIHVTKEVKEVATLSCGHNVSVEELAQTRIYWQKEKKMVLTMISGDMNIWPEYKNRTIFDITNNLSIVILALRPSDEGTYERVVLKYEKDAFKREHLAEVTLSVKAD
B2: I30V/T57I/L70P/A71D/A91T: variant CD80 IgV-Fc, IgV SEQ ID NO:159 (protein)
chain: VIHVTKEVKEVATLSCGHNVSVEELAQTRVYWQKEKKMVLTMMSGDMNIWPEYKNRIIFDITNNLSIVIPDLRPSDEGTYECVVLKYEKDTFKREHLAEVTLSVKAD
B3: E35D/M47I/L65P/D90N: variant CD80 IgV-Fc, IgV SEQ ID NO:167 (protein)
chain: VIHVTKEVKEVATLSCGHNVSVEELAQTRIYWQKDKKMVLTMMSGDINIWPEYKNRTIFDITNNPSIVILALRPSDEGTYECVVLKYEKNAFKREHLAEVTLSVKAD
B4: K34E/T41A/L72V: variant CD80 IgV-Fc, IgV SEQ ID NO:174 (protein)
chain: VIHVTKEVKEVATLSCGHNVSVEELAQTRIYWQEEKKMVLAMMSGDMNIWPEYKNRTIFDITNNLSIVILAVRPSDEGTYECVVLKYEKDAFKREHLAEVTLSVKAD
B5: E81K/A91S: variant CD80 IgV-Fc, IgV SEQ ID NO:172 (protein)
chain: VIHVTKEVKEVATLSCGHNVSVEELAQTRIYWQKEKKMVLTMMSGDMNIWPEYKNRTIFDITNNLSIVILALRPSDEGTYKCVVLKYEKDSFKREHLAEVTLSVKAD
B6: L25S/E35D/M47I/D90N: variant CD80 IgV-Fc, IgV SEQ ID NO:168 (protein)
chain: VIHVTKEVKEVATLSCGHNVSVEESAQTRIYWQKDKKMVLTMMSGDINIWPEYKNRTIFDITNNLSIVILALRPSDEGTYECVVLKYEKNAFKREHLAEVTLSVKAD
B7: V22L/M38V/M47I/A71D/L85M: variant CD80 IgV-Fc, IgV SEQ ID NO:158 (protein)
chain: VIHVTKEVKEVATLSCGHNVSLEELAQTRIYWQKEKKVVLTMMSGDTNIWPEYKNRTIFDITNNLSIVILDLRPSDEGTYECVVMKYEKDAFKREHLAEVTLSVKAD
B8: A71D: variant CD80 IgV-Fc, IgV SEQ ID NO:170 (protein)
chain: VIHVTKEVKEVATLSCGHNVSVEELAQTRIYWQKEKKMVLTMMSGDMNIWPEYKNRTIFDITNNLSIVILDLRPSDEGTYECVVLKYEKDAFKREHLAEVTLSVKAD
B9: V22I/L70M/A71D: variant CD80 IgV-Fc, IgV SEQ ID NO:160 (protein)
chain: VIHVTKEVKEVATLSCGHNVSIEELAQTRIYWQKEKKMVLTMMSGDMNIWPEYKNRTIFDITNNLSIVIMDLRPSDEGTYECVVLKYEKDAFKREHLAEVTLSVKAD
B10: T41S/A71D/V84A: variant CD80 IgV-Fc, IgV SEQ ID NO:175 (protein)
chain: VIHVTKEVKEVATLSCGHNVSVEELAQTRIYWQKEKKMVLSMMSGDMNIWPEYKNRTIFDITNNLSIVILDLRPSDEGTYECVALKYEKDAFKREHLAEVTLSVKAD

The target of this assay is CD28 (Homo sapiens, UniProt P10747). Description: Jurkat/IL2 reporter assay: blockade of CD28 costimulation (plate-bound anti-CD3/CD86-Fc). The class given is cell-based. Also noted: host or cells: Jurkat cells expressing an IL-2-luciferase reporter. Particulars: Table E5; protein diluted to 40 nM before mixing with cells; 5 hours. How it is done:
The day before the assay, the assay plate was prepared. […] The plate was incubated overnight at 4° C. to allow the antibody and CD86-Fc protein to adhere to the surface of the plate. The next day, the wells of the assay plate were washed twice with 150 μL PBS prior to the assay.
Jurkat effector cells expressing IL-2-luciferase reporter were counted and resuspended in assay buffer to a concentration of 2×10^6 cells/mL. 60 μL of the Jurkat cell suspension were then added to the wells containing the CD80-Fc fusion molecules or controls. The cells and CD80 proteins were incubated at room temperature for 15 minutes and then 100 μL of the cell/CD80 protein mixture were transferred/well of the prepared anti-CD3/CD86-Fc assay plate.
The assay plate was briefly spun down (10 seconds at 1200 RPM) and incubated at 37° C. for 5 hours. After the 5 hour incubation, the plate was removed and equilibrated to room temperature for 15 minutes. 100 μL of Bio-Glo (Promega) were added/well of the assay plate, which was then placed on an orbital shaker for 10 minutes. Luminescence was measured with a 1 second per well integration time using a BioTek Cytation 3 luminometer.
Background: A reporter such as luciferase makes a cellular process visible.
For the molecule B1, the “Average Relative Luminescence Units” value is given as 1326 Relative Luminescence Units.
Consider B2, for which the “Average Relative Luminescence Units” value is reported as 1731 Relative Luminescence Units.
The same measure for B3: 2377 Relative Luminescence Units.
The same measure for B4: 4225 Relative Luminescence Units; for B5: 4038 Relative Luminescence Units.
On to B6, for which the “Average Relative Luminescence Units” value is listed as 2567 Relative Luminescence Units.
On to B7, for which the “Average Relative Luminescence Units” value was 1770 Relative Luminescence Units.
Consider B8, for which the “Average Relative Luminescence Units” value is on record as 999 Relative Luminescence Units.
B9: the “Average Relative Luminescence Units” value is given as 253 Relative Luminescence Units.
For B10, the “Average Relative Luminescence Units” value was 2685 Relative Luminescence Units.

The values above are taken from patent US20220177587A1, “METHODS AND USES OF VARIANT CD80 FUSION PROTEINS AND RELATED CONSTRUCTS” (Alpine Immune Sciences, Inc., priority 2018, published 2022).
